Source: US20260248837A1

Molecular target: human CXCR4 (human) (UniProt P61073)
Assay: cell-based or functional assay

UniProt P61073, sequence (P61073 1-350): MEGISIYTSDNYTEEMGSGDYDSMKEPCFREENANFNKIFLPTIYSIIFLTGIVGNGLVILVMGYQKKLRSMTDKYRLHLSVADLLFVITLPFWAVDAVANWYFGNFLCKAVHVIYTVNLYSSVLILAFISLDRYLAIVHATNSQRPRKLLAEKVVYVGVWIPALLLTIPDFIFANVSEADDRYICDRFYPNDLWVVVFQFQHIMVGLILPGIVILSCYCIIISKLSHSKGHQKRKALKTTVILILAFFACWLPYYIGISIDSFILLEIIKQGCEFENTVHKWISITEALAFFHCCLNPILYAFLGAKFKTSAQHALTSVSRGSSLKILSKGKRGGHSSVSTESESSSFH

migration of Jurkat cells (chemotaxis assay), half-maximal stimulation: 0.3 nM
migration of Nalm-6 cells (chemotaxis assay), half-maximal stimulation: 0.3 nM
Substance: human CXCL12 (human CXCL12α, L-CXCL12) (ligand)
